The text below walks through data of the supplement of paper PMC10598134.

This series is described as follows: collision cross section of unmodified peptide (TIMS, N2, iRT-aligned); higher = larger / more extended gas-phase ion. As for the experimental part: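 Unmodified synthetic counterpart peptides (ProteomeTools / JPT), analysed by nanoLC-TIMS-QTOF (dda-PASEF). 1/K0 was aligned run-wise to spiked iRT peptides and converted to CCS in N2 (Mason-Schamp). Values are the mean of 1-3 technical replicates for the most abundant feature at each charge state. The same unmodified peptide is repeated across rows and is averaged.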

± gives the standard deviation.

The substance GAPGPQGPPGPPGK returned a collision cross section (charge state: 2) of 357.97 ± 0.58 Å².
GARLPGPVSSAR: the collision cross section runs as follows: (charge state: 2) 359.36 ± 0.74 Å²; (charge state: 3) 465.32 ± 9.3 Å².
Regarding GATVTRGVPPPPTVR, the collision cross section (charge state: 2) came out at 421.15 Å² and the collision cross section (charge state: 3) is given as 511.54 ± 2 Å².
For GDAGEPGR, under “charge state: 2”, the collision cross section was 283.75 ± 1.9 Å².
GDAGEPGRPGSPGK: the collision cross section turned out to be 357.76 ± 0.58 Å² (charge state: 2) and 449.7 ± 1.2 Å² (charge state: 3).
For the setting “charge state: 2”, GDIGETGVPGAEGPR showed a collision cross section of 381.04 ± 0.92 Å².
GDKGDAGEPGR came in with a collision cross section (charge state: 2) of 331.44 ± 0.79 Å² and a collision cross section (charge state: 3) of 419.58 ± 2 Å².
Where the note is “charge state: 2”, GDNGSVGEPGPK gave a collision cross section of 342.97 ± 0.86 Å².
On to GDPGLIGPK, for which, where the note is “charge state: 2”, the collision cross section came to 313.62 ± 1.5 Å².
The same measure, in the same setting: the result for GDQGEPGPSGNPGK reads 342.01 ± 0.23 Å².
Regarding GDRGEIGPPGPR, the collision cross section runs as follows: (charge state: 2) 366.43 ± 0.3 Å²; (charge state: 3) 425.03 ± 1.2 Å².
In the same order, the values of GDTGLPGPQGIPGGVGSPGR are 429.26 ± 1 Å² and 497.26 ± 35 Å².
With GDYDLNAVR, the collision cross section (charge state: 2) turned out to be 340.54 ± 0.15 Å².
On the same count and under the same terms, the result for GEAGPTGPQGEPGVR reads 385.03 ± 0.4 Å².
GEAGPTGPQGEPGVRGIR gave a collision cross section (charge state: 3) of 495.75 ± 4.4 Å².
For the substance GEGGFGGRGGGR, the collision cross section is, setting by setting: (charge state: 2) 340.19 ± 0.38 Å²; (charge state: 3) 426.14 ± 4 Å².
On to GEIGPPGPR, for which the collision cross section (charge state: 2) was determined as 309.77 ± 3.8 Å².
GEKGDPGLIGPK: the collision cross section by setting is: (charge state: 2) 373.44 ± 1.5 Å²; (charge state: 3) 449.05 ± 1.4 Å².
Consider GEKGLPGLAGDHGEFGEK, for which the collision cross section (charge state: 3) is 564.38 ± 1.3 Å².
Take GEKGNPGVGTQGPR: the collision cross section is, setting by setting: (charge state: 2) 370.3 ± 0.92 Å²; (charge state: 3) 437.26 ± 1.3 Å².
Take GEPGIPAIPGIR: under “charge state: 2”, the collision cross section is 347.87 ± 0.23 Å².
On to GEPGIPAIPGIRGPK, for which the collision cross section reads like this: (charge state: 2) 382.37 ± 0.58 Å²; (charge state: 3) 515.69 ± 0.34 Å².
For the substance GEPGLPGHPGK, for the setting “charge state: 2”, the collision cross section amounted to 338.84 ± 0.58 Å².
Regarding GEPGQGLRGLQGPPGK, the collision cross section is recorded as 417.18 ± 1.2 Å² (charge state: 2) and 443.35 ± 0.85 Å² (charge state: 3).
GEQGEPGAPGIR: the collision cross section (charge state: 2) is 347.53 ± 0.79 Å².
For GEQGEPGAPGIRTGIQGLK, the collision cross section (charge state: 2) stood at 452.7 ± 0.99 Å² and the collision cross section (charge state: 3) was 505.34 ± 2.1 Å².
As for GERGFPGYPGPK, the collision cross section turned out to be 366.2 ± 1.3 Å² (charge state: 2) and 460.83 ± 0.86 Å² (charge state: 3).
The like results for GERGPPGPPGK were, in that order, 325.96 ± 0.79 Å² and 437.43 ± 1.2 Å².
GERGPPGPPGR: the collision cross section is recorded as 331 ± 1.5 Å² (charge state: 2) and 441.17 ± 1.4 Å² (charge state: 3).
The like results for GERGVPGER were, in that order, 324.16 ± 0.79 Å² and 410.66 ± 1.3 Å².
In the same order, the values of GETASKLQSEISR are 404.79 ± 2.8 Å² and 463.95 ± 4.6 Å².
The like results for GEVGAGAGPGAQAGPSAKR were, in that order, 436.7 ± 2.1 Å² and 469.26 ± 5.9 Å².
Consider GEVQVSDKER, for which the collision cross section (charge state: 2) came out at 363.87 ± 0.37 Å² and the collision cross section (charge state: 3) worked out at 439.27 ± 4.5 Å².
For the setting “charge state: 2”, GEYFGEK had a collision cross section of 311.09 ± 0.97 Å².
As to GFALVGVGSEASSKK, the collision cross section is, setting by setting: (charge state: 2) 433.33 ± 1.5 Å²; (charge state: 3) 506.74 ± 2.3 Å².
In the same order, the values of GFCFITYTDEEPVKK are 461.17 ± 2.5 Å² and 509.46 ± 2.1 Å².
For GFGRGGAESHTFK, the collision cross section runs as follows: (charge state: 2) 384.5 ± 0.2 Å²; (charge state: 3) 473.03 ± 1.3 Å².
The like results for GFLQPPPLRQPR were, in that order, 397.31 ± 0.59 Å² and 451.27 ± 5.3 Å².
In the case of GFPGAPGLPGLK, under “charge state: 2”, the collision cross section is 357.61 ± 0.4 Å².
As for GFPGAPGLPGLKGHR, the collision cross section (charge state: 3) was found to be 475.59 ± 1.2 Å².
In the case of GFPGIQGRK, the collision cross section reads like this: (charge state: 2) 338.49 ± 1.5 Å²; (charge state: 3) 406.74 ± 2 Å².
Regarding GGFQNRGGGSGGGGNYR, the collision cross section reads like this: (charge state: 2) 412.29 Å²; (charge state: 3) 474.43 ± 1.4 Å².
Consider GGGDRGGFGPGK, for which the collision cross section reads like this: (charge state: 2) 338.46 ± 2.1 Å²; (charge state: 3) 414.71 ± 5.6 Å².
The like results for GGGFGAHGRGR were, in that order, 350.63 ± 2.6 Å² and 420.87 ± 5.1 Å².
In the same order, the values of GGGGGGGGGAPRGR are 341.22 ± 1.4 Å² and 426.09 ± 5.4 Å².
Take GGGGGRGGLHDFR: the collision cross section reads like this: (charge state: 2) 368.29 ± 0.36 Å²; (charge state: 3) 457.27 ± 2.8 Å².
As to GGGYGGDRGGYGGDR, the collision cross section runs as follows: (charge state: 2) 380.24 Å²; (charge state: 3) 463.21 ± 0.23 Å².
As for GGNFGGRGGYGGGGGGSR, the collision cross section runs as follows: (charge state: 2) 404.35 ± 1.4 Å²; (charge state: 3) 464.41 ± 2.6 Å².
Where the note is “charge state: 2”, GGPGAPGAPGPK displayed a collision cross section of 323.76 ± 0.58 Å².
In the case of GGPGAPGAPGPKGESGDYK, the collision cross section (charge state: 2) was 431.57 ± 1 Å² and the collision cross section (charge state: 3) came out at 489.8 ± 6.1 Å².
For GGPGGELPRGPQAGLGPR, the collision cross section reads like this: (charge state: 2) 431.54 Å²; (charge state: 3) 491.33 ± 3.4 Å².
In the same order, the values of GGPGSTLSFVGKR are 395.98 ± 0.53 Å² and 456.87 ± 1.5 Å².
For the substance GGQGPPGPQGPIGYPGPR, the collision cross section is given as 419.74 ± 1 Å² (charge state: 2) and 520.51 ± 0.87 Å² (charge state: 3).
GGRGTPGK showed a collision cross section (charge state: 2) of 284.56 ± 17 Å².
Regarding GGSAGGRGFFR, the collision cross section (charge state: 2) came to 360.79 ± 0.54 Å² and the collision cross section (charge state: 3) turned out to be 432.59 ± 6.7 Å².
In the same order, the values of GGSGGRGVSVSSAR are 376.75 ± 1.3 Å² and 456.24 ± 1.8 Å².
For the substance GHPGPPGPPGEQGLPGLAGK, the collision cross section stood at 440.68 ± 1.2 Å² (charge state: 2) and 497.21 ± 14 Å² (charge state: 3).
Substance GHYTIGK returned a collision cross section (charge state: 2) of 315.37 ± 1.9 Å².
Turning to GIGRGTVQALHATGAR, the collision cross section runs as follows: (charge state: 2) 428.55 Å²; (charge state: 3) 501.79 ± 0.73 Å².
The substance GITGKPGPK had a collision cross section (charge state: 2) of 312.13 ± 0.57 Å².
In turn, GKLGVPGLPGYPGR came in with a collision cross section (charge state: 2) of 385.87 ± 0.86 Å² and a collision cross section (charge state: 3) of 480.85 ± 1.2 Å².
The like results for GLATFPSRGAK were, in that order, 368.08 ± 0.52 Å² and 445.97 ± 5.5 Å².
The like results for GLPGEKGER were, in that order, 342.99 ± 1.2 Å² and 394.07 ± 1.2 Å².
As to GLPGEPGPR, the collision cross section (charge state: 2) worked out at 309.4 ± 0.22 Å².
Take GLPGEPGPRGLLGPK: the collision cross section is 406.63 ± 0.39 Å² (charge state: 2) and 459.1 ± 1.2 Å² (charge state: 3).
The like results for GLPGLAGDHGEFGEK were, in that order, 432.07 ± 1 Å² and 504.1 ± 0.34 Å².
For the setting “charge state: 2”, GLPGPPGPQGESR had a collision cross section of 356.03 ± 0.79 Å².
Same read-out and setting: to GLQGPPGK belongs 292.79 ± 0.8 Å²; to GNDISSGTVLSDYVGSGPPK, 464.77 ± 1 Å².
GNDISSGTVLSDYVGSGPPKK: the collision cross section (charge state: 3) turned out to be 543.89 ± 0.71 Å².
With GNPGVGTQGPR, the collision cross section (charge state: 2) is given as 333.35 ± 8.7 Å².
Turning to GPKGQQGEPGPK, the collision cross section by setting is: (charge state: 2) 356.26 ± 0.79 Å²; (charge state: 3) 451.77 ± 0.63 Å².
GPPGAKGNK: the collision cross section (charge state: 2) stood at 312.31 ± 1.7 Å².
On to GPPGPAGPSGESR, for which the collision cross section (charge state: 2) came out at 343.88 ± 1 Å².
The same measure, in the same setting: the result for GPPGPPGK reads 285.24 ± 0.86 Å²; that for GPPGPPGR, 295.47 ± 0.78 Å².
Consider GPPGPPGRPGNSGIR, for which the collision cross section (charge state: 3) was found to be 436.52 ± 1.7 Å².
Regarding GPPPSYGGSSR, under “charge state: 2”, the collision cross section was 337.81 ± 0.59 Å².
In turn, GPPRGGPGGELPR gave a collision cross section (charge state: 2) of 366.24 ± 0.38 Å² and a collision cross section (charge state: 3) of 471.24 ± 3.4 Å².
With GPQNATDSYVHK, the collision cross section runs as follows: (charge state: 2) 381.43 ± 1.1 Å²; (charge state: 3) 445.36 ± 1.8 Å².
Turning to GQDSTIAASEQQVAAR, the collision cross section is, setting by setting: (charge state: 2) 416.79 ± 0.66 Å²; (charge state: 3) 495.1 ± 0.23 Å².
In the same order, the values of GQKGEPGLPGHPGK are 378.64 ± 1.5 Å² and 470.96 ± 1.2 Å².
As for GQQGEPGPK, the collision cross section (charge state: 2) is given as 313.75 ± 0.93 Å².
Turning to GRGAAAAGGPQR, the collision cross section is, setting by setting: (charge state: 2) 344.37 ± 5.2 Å²; (charge state: 3) 433.7 ± 4.8 Å².
On to GRGAANDSTQFTVAGR, for which the collision cross section is reported as 411.19 Å² (charge state: 2) and 473.86 ± 2.3 Å² (charge state: 3).
As for GRGAPPPPPSR, the collision cross section (charge state: 2) is listed as 341.09 ± 1.1 Å² and the collision cross section (charge state: 3) came to 436.88 ± 3.2 Å².
